Experimental data: IntAct's records for PubMed 16739988

B1: Gem-associated protein 5 (Homo sapiens), Q8TEQ6 (parent)
chain: MGQEPRTLPPSPNWYCARCSDAVPGGLFGFAARTSVFLVRVGPGAGESPGTPPFRVIGELVGHTERVSGFTFSHHPGQYNLCATSSDDGTVKIWDVETKTVVTEHALHQHTISTLHWSPRVKDLIVSGDEKGVVFCYWFNRNDSQHLFIEPRTIFCLTCSPHHEDLVAIGYKDGIVVIIDISKKGEVIHRLRGHDDEIHSIAWCPLPGEDCLSINQEETSEEAEITNGNAVAQAPVTKGCYLATGSKDQTIRIWSCSRGRGVMILKLPFLKRRGGGIDPTVKERLWLTLHWPSNQPTQLVSSCFGGELLQWDLTQSWRRKYTLFSASSEGQNHSRIVFNLCPLQTEDDKQLLLSTSMDRDVKCWDIATLECSWTLPSLGGFAYSLAFSSVDIGSLAIGVGDGMIRVWNTLSIKNNYDVKNFWQGVKSKVTALCWHPTKEGCLAFGTDDGKVGLYDTYSNKPPQISSTYHKKTVYTLAWGPPVPPMSLGGEGDRPSLALYSCGGEGIVLQHNPWKLSGEAFDINKLIRDTNSIKYKLPVHTEISWKADGKIMALGNEDGSIEIFQIPNLKLICTIQQHHKLVNTISWHHEHGSQPELSYLMASGSNNAVIYVHNLKTVIESSPESPVTITEPYRTLSGHTAKITSVAWSPHHDGRLVSASYDGTAQVWDALREEPLCNFRGHRGRLLCVAWSPLDPDCIYSGADDFCVHKWLTSMQDHSRPPQGKKSIELEKKRLSQPKAKPKKKKKPTLRTPVKLESIDGNEEESMKENSGPVENGVSDQEGEEQAREPELPCGLAPAVSREPVICTPVSSGFEKSKVTINNKVILLKKEPPKEKPETLIKKRKARSLLPLSTSLDHRSKEELHQDCLVLATAKHSRELNEDVSADVEERFHLGLFTDRATLYRMIDIEGKGHLENGHPELFHQLMLWKGDLKGVLQTAAERGELTDNLVAMAPAAGYHVWLWAVEAFAKQLCFQDQYVKAASHLLSIHKVYEAVELLKSNHFYREAIAIAKARLRPEDPVLKDLYLSWGTVLERDGHYAVAAKCYLGATCAYDAAKVLAKKGDAASLRTAAELAAIVGEDELSASLALRCAQELLLANNWVGAQEALQLHESLQGQRLVFCLLELLSRHLEEKQLSEGKSSSSYHTWNTGTEGPFVERVTAVWKSIFSLDTPEQYQEAFQKLQNIKYPSATNNTPAKQLLLHICHDLTLAVLSQQMASWDEAVQALLRAVVRSYDSGSFTIMQEVYSAFLPDGCDHLRDKLGDHQSPATPAFKSLEAFFLYGRLYEFWWSLSRPCPNSSVWVRAGHRTLSVEPSQQLDTASTEETDPETSQPEPNRPSELDLRLTEEGERMLSTFKELFSEKHASLQNSQRTVAEVQETLAEMIRQHQKSQLCKSTANGPDKNEPEVEAEQPLCSSQSQCKEEKNEPLSLPELTKRLTEANQRMAKFPESIKAWPFPDVLECCLVLLLIRSHFPGCLAQEMQQQAQELLQKYGNTKTYRRHCQTFCM

Variants of: B1
Conditions: with if4e_human EIF4E

Effect of a mutation on the interaction, decreasing interaction:
Y992A
L265A
L270A;K271A
L997A;L998A
